Data: PMC8698469, “A Combined Spectroscopic and In Silico Approach to Evaluate the Interaction of Human Frataxin with Mitochondrial Superoxide Dismutase” (Biomedicines, 2021)
Where a chain is given by its changes, count along the chain named. Numbers in names are those of the source. Values belong to the binder of their own block, whether it stands above or below them.

Columns and labels:
[1] = target: T1, human mitochondrial superoxide dismutase (SOD2), His-tag recombinant protein (human, UniProt P04179 25-222); assay: tryptophan fluorescence quenching (mixture against the sum of the single spectra); both in solution; FXN 1.4 uM, SOD2 1.9 uM (FXN:(SOD2)4 1:0.34), 288 K, mix of 20 mM TRIS-HCl pH 8 and 25 mM HEPES pH 7.0, 50 mM KCl, under nitrogen; settings: both partners purified
T1 construct: Trp residues are printed as W78, W123, W125, W161, W181, W186; also called Mn-SOD; (SOD2)4; source: bought: Technical Novusbio (His-tag recombinant protein)
T1 sequence: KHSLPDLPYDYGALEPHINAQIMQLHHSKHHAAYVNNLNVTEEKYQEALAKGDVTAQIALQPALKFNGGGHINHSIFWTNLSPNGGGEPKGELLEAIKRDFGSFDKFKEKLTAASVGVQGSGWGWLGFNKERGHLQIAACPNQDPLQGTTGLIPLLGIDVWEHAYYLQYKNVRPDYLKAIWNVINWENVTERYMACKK

[2] = target: T1, human mitochondrial superoxide …; assay: SDSL-EPR (EPR spectra of spin-labelled protein, fitted rotational correlation time); both in solution; 10 uM spin-labelled FXN mutant without or with 40 uM SOD2 (FXN:(SOD2)4 1:1; also 1:0.5), room temperature, 18 uL SOD buffer (20 mM Tris HCl pH 8, 20% v/v glycerol) or SOD2 stock with 2 uL FXN stock, under nitrogen flow; settings: both partners purified

decrease in fluorescence quenching relative to the sum of the individual spectra [1]: 17%
B1: human wild-type mature frataxin, FXN(90-210) (domain or fragment, UniProt Q16595 90-210, looked up)
chain: LDETTYERLAEETLDSLAEFFEDLADKPYTFEDYDVSFGSGVLTVKLGGDLGTYVINKQTPNKQIWLSSPSSGPKRYDWTGKNWVYSHDGVSLHELLAAELTKALKTKLDLSSLAYSGKDA
notes: human frataxin, residues 90-210 of the 210 amino acid precursor, from plasmid pET-9b/FXN(90-210); also called WT FXN; source: E. coli BL21 (DE3), purified (DEAE Sepharose ion exchange, SEC on Superdex 200)

ΔτC (τC^+SOD − τC^−SOD) [2]: 0.41 ns
B2: human FXN(90-210) A193C, spin-labelled with M-TETPO (domain or fragment, UniProt Q16595 90-210, looked up)
chain: B1 chain with A104C
modifications: M-TETPO nitroxide spin label on cysteine 193
notes: human frataxin, residues 90-210, native residue mutated to cysteine for spin labelling; source: E. coli BL21 (DE3), purified (DEAE Sepharose ion exchange, SEC), labelled with M-TETPO

ΔτC (τC^+SOD − τC^−SOD) [2]: 0.4 ns
B3: human FXN(90-210) T133C, spin-labelled with M-TETPO (domain or fragment, UniProt Q16595 90-210, looked up)
chain: B1 chain with T44C
modifications: M-TETPO nitroxide spin label on cysteine 133
notes: as for B2

ΔτC (τC^+SOD − τC^−SOD) [2]: 0.44 ns
B4: human FXN(90-210) A114C, spin-labelled with M-TETPO (domain or fragment, UniProt Q16595 90-210, looked up)
chain: B1 chain with A25C
modifications: M-TETPO nitroxide spin label on cysteine 114
notes: as for B2

ΔτC (τC^+SOD − τC^−SOD) [2]: 0.56 ns
B5: human FXN(90-210) H183C, spin-labelled with M-TETPO (domain or fragment, UniProt Q16595 90-210, looked up)
chain: B1 chain with H94C
modifications: M-TETPO nitroxide spin label on cysteine 183
notes: as for B2
